Measured values reported in US20250042970A1 (AURINIA PHARMACEUTICALS, published 2025).
Ends that are not written are not given here. pIg22 = chimeric Ig-Fc consisting of the CH2 domain of PIg18 (IgG2 derivative) and the CH3 domain of IgG1

T1: FLAG-tagged recombinant human APRIL (human, UniProt O75888 105-250)
T1 construct: KINEXA ligand; also called huAPRIL
T1 sequence: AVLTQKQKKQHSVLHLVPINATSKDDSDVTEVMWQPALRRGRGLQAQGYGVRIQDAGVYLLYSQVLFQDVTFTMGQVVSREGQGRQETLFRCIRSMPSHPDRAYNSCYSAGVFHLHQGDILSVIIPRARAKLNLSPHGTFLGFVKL

T2: FLAG-tagged cynomolgous APRIL (cynomolgus monkey, UniProt A0ACM8R0G4 110-250 (rhesus entry))
T2 construct: FLAG-tagged, expressed with TPA signal peptide; also called cyAPRIL
T2 sequence: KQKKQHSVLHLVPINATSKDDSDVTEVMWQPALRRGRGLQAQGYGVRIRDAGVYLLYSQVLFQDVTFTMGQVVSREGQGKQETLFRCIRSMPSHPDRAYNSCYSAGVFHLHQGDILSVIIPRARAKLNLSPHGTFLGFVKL


Assays:
FLAG-tagged human BAFF [1] = biological target: T3, FLAG-tagged human BAFF (human, UniProt Q9Y275 134-285, limits assumed); experiment: KinExA
T3 construct: used in BIACORE (Ex. 9) and KINEXA (Ex. 11); also called huBAFF
Experimental: (§1) Equilibrium measurements were performed using FLAG-tagged, recombinant huBAFF and huAPRIL ligands. Fixed ligand concentrations of human BAFF or human APRIL were incubated with serial dilutions of the variant BCMA ECD-Ig fusion polypeptides, and free ligand was detected in a KINEXA 3200 Instrument. variant BCMA ECD-Ig fusion polypeptides were first diluted in equilibration buffer (1×PBS, pH 7.4, 1 mg/ml BSA) to a range of concentrations from 10 nM to 100 fM. The linear portion of the dilution series was typically 2-fold. Ligands were diluted in equilibration buffer to fixed concentrations ranging from 5 to 20 pM and then incubated with the variant BCMA-Ig dilutions in total reaction volumes ranging from 4.5 to 15 ml. Samples were incubated at room temperature for 48-72 hours to reach equilibrium. For each data point, a fresh column of 850 μl of bead slurry coated with Variant BAv-238475-Ig was introduced into the KINEXA flow cell. Equilibrated samples ranging from 1 to 5 ml reaction volume were injected at a flow rate of 0.25 ml/min. […] The DyLight 649 fluorescent signal was detected using the red filter set (620/30 nanometer excitation filter, 670/40 nanometer emission filter, 645 nanometer dichroic filter) on the KinExA instrument and converted to a voltage signal that was directly proportional to the concentration of free ligand in the equilibrated sample.
(§2) The standard kinetic exclusion assays and data analyses described above were performed on protein preparations of various variant BCMA ECD-Ig fusion polypeptides, as well as Z-TACI-Ig and [S40G]huBCMA ECD-Ig fusion polypeptides. FIG. 8A, FIG. 8B, and Table 4 summarize the binding data for representative variant BCMA ECD-Ig polypeptides and controls in molar concentrations of huBAFF or huAPRIL determined by KINEXA binding assays.

[2] = biological target: T1, FLAG-tagged recombinant human APRIL; experiment: KinExA
Experimental: as §1, §2

FLAG-tagged human BAFF [3] = biological target: T3, FLAG-tagged human BAFF; experiment: KinExA; remark: listed apart in the source
Experimental: as §1
(§3) Table 5 provides the selectivities of exemplary variant BCMA polypeptides with respect to BAFF and APRIL.

[4] = biological target: T1, FLAG-tagged recombinant human APRIL; experiment: KinExA; remark: listed apart in the source
Experimental: as §1, §3

FLAG-tagged human BAFF [5] = biological target: T3, FLAG-tagged human BAFF; experiment: BIACORE SPR
Experimental: (§4) For human BAFF, cynomolgus monkey APRIL, and mouse APRIL measurements, mouse monoclonal antibody (IgG1) anti-FLAG M2 (Sigma Aldrich, Cat. No. F1804) was immobilized on CM3 sensor chips (GE Healthcare, Cat. No. BR-1005-41) according to the manufacturer's protocol. Antibody was diluted to 30 μg/ml in immobilization buffer (10 mM pH 5±0.20; GE Healthcare; GE Healthcare, Catalog No. BR-1003-51). […] Unreacted sites were quenched with 35 μl of 1M ethanolamine-HCl, pH 8.5 (GE Healthcare, GE Healthcare, Cat. No. BR-1000-50). This procedure typically yielded 3,000-4,000 response units (RU) of coupled antibody.
(§5) The fusion polypeptides were diluted in HBS-EP buffer and flowed over ligand-coated sensor chips. The variant BCMA-Ig and surrogate control fusion proteins were injected at three concentrations (1.5 nM, 15 nM, and 150 nM at 30 μl/min for 2 minutes per association phase) in a single binding cycle, followed by a 20 minute incubation with HBS-EP buffer containing no protein at the same flow rate. A similar protocol was followed for Z-TACI-Ig, except that the injections were at 4.5 nM, 45 nM, and 450 nM.
(§6) Sequence optimization involved generating revertants from the variant BCMA ECD-Ig molecules using standard site-directed mutagenesis methods such as by SOEing as described herein above. Single as well as multiple revertants from twelve different variant-BCMA-pIg18 were generated, cloned in the pcDNA3.1 vector (Life Technologies, as described in Example 6), expressed and purified as described in Examples 6-8. The resulting proteins were assayed for their binding characteristics using Surface Plasmon Resonance as described in Example 9.

[6] = biological target: T2, FLAG-tagged cynomolgous APRIL; experiment: BIACORE SPR
Experimental: as §4, §5, §6

[7] = biological target: T2, FLAG-tagged cynomolgous APRIL; experiment: BIACORE SPR; NB = No binding
Experimental: as §4, §5
Using available information from the structures and published literature, several residues in BAv8-10 were targeted for substitution with conserved as well as non-conserved residues and their effect on BAFF and APRIL binding was assessed by BIACORE.

FLAG-tagged human BAFF [8] = biological target: T3, FLAG-tagged human BAFF; experiment: BIACORE SPR; remark: listed apart in the source
Experimental: as §4, §5
(§7) The various fusion proteins described above were expressed and purified as described previously (Examples 2 and 3 for the CET1019AS based plasmids and Examples 7 and 8 for the pcDNA based plasmids). […] The BAv9-1-Ig Fc proteins typically exist in solution as a dimeric fusion protein. The purified fusion proteins were assayed for binding activity using BIACORE (Example 9) and KINEXA (Example 11) assays.

[9] = biological target: T2, FLAG-tagged cynomolgous APRIL; experiment: BIACORE SPR; remark: listed apart in the source
Experimental: as §4, §5, §7

fold improvement over control (FLAG-tagged human BAFF [1])	fold improvement over control [2]	Selectivity for huBAFF (KD APRIL/KD BAFF) (FLAG-tagged human BAFF [3])	Selectivity for huAPRIL (KD BAFF/KD APRIL) [4]	binding result [7]	Binder	further results
2660 fold	0.008 fold	221 ratio	0.005 ratio	–	Variant 9-3-Ig (Fc fusion, human, domain: Fc; also called BAv9-3) AGQCSQNEYFDHLVRACIPCQVRCSSNTPPLTCQRYCNAGVTNSVKGTNAERKSSVECPPSPAPPVAGPSVFLFPPKPKDTLMISRTPEVTCVVVDVSHEDPEVQFNWYVDGVEVHNAKTKPREEQFNSTFRVVSVLTVVHQDWLNGKEYKCKVSNKGLPAPIEKTISKTKGQPREPQVYTLPPSREEMTKNQVSLTCLVKGFYPSDISVEWESNGQPENNYKTTPPMLDSDGSFFLYSKLTVDKSRWQQGNVFSCSVMHEALHNHYTQKSLSLSPGK	–
–	–	–	–	–	Variant 50234224-Ig (Fc fusion, human, domain: Fc; also called Parent 6) AGQCSQNDYYDHLLRACIPCQLRCSSNNPPLTCQRYCNAGVTNSVKGTNAERKSSVECPPSPAPPVAGPSVFLFPPKPKDTLMISRTPEVTCVVVDVSHEDPEVQFNWYVDGVEVHNAKTKPREEQFNSTFRVVSVLTVVHQDWLNGKEYKCKVSNKGLPAPIEKTISKTKGQPREPQVYTLPPSREEMTKNQVSLTCLVKGFYPSDISVEWESNGQPENNYKTTPPMLDSDGSFFLYSKLTVDKSRWQQGNVFSCSVMHEALHNHYTQKSLSLSPGK	fold improvement over control (FLAG-tagged human BAFF [5]): 4.2 fold; fold improvement over control [6]: 0.4 fold
–	–	–	–	no binding (tested: 150 nM)	AGQCSQNEYFDHLLRACIPCQVNCSSNTPPLTCQRYCNAGVTNSVKGTNA (Fc fusion, not shown: PIg18: human IgG2 Fc, Ser at Fc positions 4, 5, 11 (native Cys)) [BAv45-Ig]	–
940 fold	0.00514 fold	129 ratio	0.008 ratio	–	AGQCSQNEYFDSLVRHCIPCQIRCSSNTPPLTCQRYCNAGVTNSVKGTNA (Fc fusion, not shown: PIg18: human IgG2 Fc, Ser at Fc positions 4, 5, 11 (native Cys)) [BAv58-Ig]	Kd (FLAG-tagged human BAFF [1]): 0.24 pM; Kd [2]: 0.031 nM
–	–	–	–	–	AGQCSQNEYFDPLIRACIPCQVRCSSNTPPLTCQRYCNAGVTNSVGGGGS (Fc fusion, human, domain: Fc; not shown: PIg22: chimeric Fc, CH2 domain of PIg18 (human IgG2 derivative) and CH3 domain of human IgG1) [BAv49-5L-pIg22]	Kd (FLAG-tagged human BAFF [8]): 14.1 pM; Kd [9]: 1.76 nM
–	–	–	–	no binding (tested: 150 nM)	AGQCSQNEYFDPLVRACIPCQARCSSNTPPLTCQRYCNAGVTNSVKGTNA (Fc fusion, not shown: PIg18: human IgG2 Fc, Ser at Fc positions 4, 5, 11 (native Cys)) [BAv82-Ig]	–
1180 fold	0.00225 fold	369 ratio	0.003 ratio	–	AGQCSQNEYFDHLIRACIPCQARCSSNTPPLTCQRYCNAGVTNSVKGTNA (Fc fusion, also called BAv51 (2)-Ig; not shown: PIg18: human IgG2 Fc, Ser at Fc positions 4, 5, 11 (native Cys)) [BAv51-Ig]	Kd (FLAG-tagged human BAFF [1]): 0.192 pM; Kd [2]: 0.0708 nM
–	–	–	–	–	AGQCSQNEYFDPLVRACIPCQIRCSSNTPPLTCQRYCNAGVTNSVGGGGS-pIg22 (Fc fusion, human, not fully specified; cysteine pairing not given here, domain: Fc; not shown: PIg22: chimeric Fc, CH2 domain of PIg18 (human IgG2 derivative) and CH3 domain of human IgG1) [BAv83-5L-pIg22]	Kd (FLAG-tagged human BAFF [8]): 8.61 pM; Kd [9]: 0.861 nM
–	–	–	–	no binding (tested: 150 nM)	AGQCSQNEYFDHLGRACIPCQVRCSSNTPPLTCQRYCNAGVTNSVKGTNA (Fc fusion, not shown: PIg18: human IgG2 Fc, Ser at Fc positions 4, 5, 11 (native Cys)) [BAv55-Ig]	–
–	–	–	–	–	AGQCSQNEYFDPLVRACIPCQVRCSSNTPPLTCQRYCNAGVTNSVGGGGS-pIg22 (Fc fusion, human, not fully specified; cysteine pairing not given here, domain: Fc; not shown: PIg22: chimeric Fc, CH2 domain of PIg18 (human IgG2 derivative) and CH3 domain of human IgG1) [BAv81-5L-pIg22]	Kd (FLAG-tagged human BAFF [8]): 6.75 pM; Kd [9]: 2.42 nM
–	–	–	–	no binding (tested: 150 nM)	AGQCSQNEYFDHLARACIPCQVRCSSNTPPLTCQRYCNAGVTNSVKGTNA (Fc fusion, not shown: PIg18: human IgG2 Fc, Ser at Fc positions 4, 5, 11 (native Cys)) [BAv63-Ig]	–
–	–	–	–	no binding (tested: 150 nM)	AGQCSQNEYFDHLYRACIPCQVRCSSNTPPLTCQRYCNAGVTNSVKGTNA (Fc fusion, not shown: PIg18: human IgG2 Fc, Ser at Fc positions 4, 5, 11 (native Cys)) [BAv64-Ig]	–
–	–	–	–	no binding (tested: 150 nM)	AGQCSQNEYFDPLIRACIPCQARCSSNTPPLTCQRYCNAGVTNSVKGTNA (Fc fusion, not shown: PIg18: human IgG2 Fc, Ser at Fc positions 4, 5, 11 (native Cys)) [BAv79-Ig]	–
488 fold	0.00469 fold	73.6 ratio	0.014 ratio	–	AGQCSQNEYFDSLIRHCIPCQVRCSSNTPPLTCQRYCNAGVTNSVKGTNA (Fc fusion, not shown: PIg18: human IgG2 Fc, Ser at Fc positions 4, 5, 11 (native Cys)) [BAv53-Ig]	Kd (FLAG-tagged human BAFF [1]): 0.462 pM; Kd [2]: 0.034 nM
4200 fold	0.0031 fold	957 ratio	0.001 ratio	–	AGQCSQNEYFDSLVRHCIPCQVRCSSNTPPLTCQRYCNAGVTNSVKGTNA (Fc fusion, also called BAv60 (2)-Ig; not shown: PIg18: human IgG2 Fc, Ser at Fc positions 4, 5, 11 (native Cys)) [BAv60-Ig]	Kd (FLAG-tagged human BAFF [1]): 0.0537 pM; Kd [2]: 0.0514 nM
–	–	–	–	no binding (tested: 150 nM)	AGQCSQNEYFDHLLRACIPCQYTCSSNTPPLTCQRYCNAGVTNSVKGTNA (Fc fusion, not shown: PIg18: human IgG2 Fc, Ser at Fc positions 4, 5, 11 (native Cys)) [BAv78-Ig]	–
10.4 fold	0.00871 fold	0.84 ratio	1.19 ratio	–	AGQCSQNEYFDHLIRACTPCQVRCSSNTPPLTCQRYCNAGVTNSVKGTNA (Fc fusion, not shown: PIg18: human IgG2 Fc, Ser at Fc positions 4, 5, 11 (native Cys)) [BAv74-Ig]	Kd (FLAG-tagged human BAFF [1]): 21.8 pM; Kd [2]: 0.0183 nM
–	–	–	–	–	AGQCSQNEYFDHLVRACIPCQARCSSNTPPLTCQRYCNAGVTNSVGGGGS-pIg22 (Fc fusion, human, not fully specified; cysteine pairing not given here, domain: Fc; not shown: PIg22: chimeric Fc, CH2 domain of PIg18 (human IgG2 derivative) and CH3 domain of human IgG1) [BAv85-5L-pIg22]	Kd (FLAG-tagged human BAFF [8]): 6.76 pM; Kd [9]: 0.784 nM
